Experimental data taken from paper PMC6538526.
pIC50: −log10 of the molar value. Where two headings read alike, the source gives them in different places.

Legend:
[1] = biological target: GST-BRCA2 fragment B2-9 (amino acids 3189–3418) (UniProt P51587); test: pull-down
[2] = biological target: GST-BRCA2 fragment B2-9 (amino acids 3189–3418) (UniProt P51587); test: pull-down; remark: listed apart in the source

UniProt P51587, sequence (P51587 3189-3418): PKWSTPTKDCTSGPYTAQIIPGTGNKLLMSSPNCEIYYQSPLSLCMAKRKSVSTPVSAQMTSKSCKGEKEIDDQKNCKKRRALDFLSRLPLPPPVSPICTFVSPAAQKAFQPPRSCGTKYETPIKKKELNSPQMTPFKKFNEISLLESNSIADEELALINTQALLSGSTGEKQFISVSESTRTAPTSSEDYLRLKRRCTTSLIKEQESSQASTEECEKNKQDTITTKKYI

Work on “purified cyclin A (from UniProt P20248 1-432) (natural protein)” yielded a pIC50 [1] of 7.53 and a pIC50 [2] of 7.55.
